Experimental data from patent US20240327530A1 (ICHNOS SCIENCES, published 2024).
Values belong to the binder of their own block, whether it stands above or below them.

How the values were obtained:
[1] = target: T1, Human IL-1RAP, membrane-bound on human cells (HaCaT, dermal fibroblasts, neutrophils, PBMC, whole blood) (human, UniProt Q9NPH3 21-570); experiment: flow cytometry on HaCaT wild-type cells, anti-human IgG PE-Cyanine7, relative geometric MFI (isotype subtracted)
T1 construct: Endogenous protein on cells
T1 sequence: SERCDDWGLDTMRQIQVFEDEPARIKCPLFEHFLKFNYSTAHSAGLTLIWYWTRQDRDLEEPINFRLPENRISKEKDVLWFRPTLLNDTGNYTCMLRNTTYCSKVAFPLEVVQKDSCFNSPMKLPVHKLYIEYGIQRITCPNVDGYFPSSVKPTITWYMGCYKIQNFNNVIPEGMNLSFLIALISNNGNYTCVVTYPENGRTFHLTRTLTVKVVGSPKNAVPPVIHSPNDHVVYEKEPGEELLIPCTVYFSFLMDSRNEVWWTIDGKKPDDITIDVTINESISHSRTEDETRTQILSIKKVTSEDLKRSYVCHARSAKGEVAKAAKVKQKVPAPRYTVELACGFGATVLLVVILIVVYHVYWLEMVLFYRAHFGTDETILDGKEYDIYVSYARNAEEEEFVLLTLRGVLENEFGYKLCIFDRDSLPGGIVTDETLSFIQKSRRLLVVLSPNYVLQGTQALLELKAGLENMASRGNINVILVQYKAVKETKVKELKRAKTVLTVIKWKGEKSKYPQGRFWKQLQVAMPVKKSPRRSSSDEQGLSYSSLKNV
Protocol: A dose-response of anti-human IL-1RAP_candidate_1 (●) or Isotype control_5 (▪) was incubated with various cell lines and cell types. Bound antibodies were detected with a monoclonal anti-human IgG PE-Cyanine7 secondary antibody. The graphs show the nonlinear sigmoidal regression binding curves (Relative Geometric Mean Fluorescence Intensity) for each cell lines. Each data point is a measurement for a given cell line. Multiple independent experiments were performed across several donors (HaCaT and HaCaT IL-1RAP KO: 4 and 3 independent experiments; Human Dermal Fibroblasts: 2 independent experiments—total of 5 donors; Human Neutrophil: 2 experiments—total of 6 donors; Cyno Dermal Fibroblasts: 2 independent experiment—total of 4 donors).
In brief, cells were harvested, counted, and plated at 50,000 cells/well in a 96-well round-bottom plate. […] The cells were gated based on size on FSC vs SSC and analyzed for PE-Cyanine7-geometric mean (geomean) fluorescence intensity using FLOWJO® software. Finally, relative geomean fluorescence intensity was calculated by subtracting fluorescence of anti-human IL-1RAP_candidate_1 per fluorescence of Isotype control_5. […]

[2] = target: T2, Mouse IL-1RAP, membrane-bound on NIH-3T3 cells (mouse, UniProt Q61730 21-570); experiment: flow cytometry on NIH-3T3 cells, PE-Cyanine7 secondary antibody, relative mean fluorescence intensity (isotype subtracted); lower of two curves
T2 construct: Endogenous protein on cells
T2 sequence (looked up): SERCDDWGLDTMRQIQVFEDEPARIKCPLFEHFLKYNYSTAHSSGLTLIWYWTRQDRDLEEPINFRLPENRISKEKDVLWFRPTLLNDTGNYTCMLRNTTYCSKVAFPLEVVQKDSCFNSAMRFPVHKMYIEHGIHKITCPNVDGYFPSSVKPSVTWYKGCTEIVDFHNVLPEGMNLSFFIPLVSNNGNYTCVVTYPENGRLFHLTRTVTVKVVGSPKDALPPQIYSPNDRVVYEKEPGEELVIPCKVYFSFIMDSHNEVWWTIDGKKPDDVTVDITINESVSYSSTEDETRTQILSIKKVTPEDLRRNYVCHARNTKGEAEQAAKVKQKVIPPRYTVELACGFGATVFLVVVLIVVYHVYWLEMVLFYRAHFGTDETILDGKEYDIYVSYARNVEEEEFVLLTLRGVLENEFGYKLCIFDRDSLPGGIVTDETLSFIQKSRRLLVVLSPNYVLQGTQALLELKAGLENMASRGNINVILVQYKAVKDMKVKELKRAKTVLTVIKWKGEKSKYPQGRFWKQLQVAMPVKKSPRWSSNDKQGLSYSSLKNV
Protocol: In brief, cells were harvested, counted, and plated at 50′000 cells/well in a 96-well round-bottom plate. The plate was centrifuged at 350 g for 3 minutes and the cells were resuspended in […] of FACS® buffer (PBS (1×)+2.5% FCS+2 mM EDTA+0.05% NaN₃) containing various concentrations (ranging from 20 to 0.0001 μg/ml) of either anti-mouse IL-1RAP_candidate_1 or Isotype control_2 antibodies. Stained cells were incubated for 30 minutes at 4° C., washed twice with FACS® buffer at 350 g for 3 min and resuspended in 100 μl of a monoclonal anti-mouse IgG PE-Cyanine7 secondary antibody (Biolegend, 407114) diluted 1/200 in FACS® buffer. Cells were then washed twice, and resuspended in 200 μl of FACS® buffer containing SYTOX® Green dead cell stain (THERMO FISHER […]®, S34860) and samples were acquired on a CYTOFLEX® instruments (Beckman Coulter). The cells were gated based on size on FSC vs SSC and analysed for PE-Cyanine7-geometric mean (geomean) fluorescence intensity using FLOWJO® software. Finally, relative geomean fluorescence intensity was calculated by subtracting fluorescence of anti-mouse IL-1RAP_candidate_1 per fluorescence of Isotype control_2. As depicted in FIG. 11, anti-mouse IL-1RAP_candidate_1 antibody recognizes membrane-bound IL-1RAP expressed on NIH-3T3 cell line. […] Each data point is a measurement for a given cell line. […]

EC50 (read off the curve) [1]: ~0.1 mg/L
B1: Anti-IL-1RAP-C8-RecC-ES-IgG1LALA (antibody, V domains shown)
VH: QVQLVQSGAEVKKPGSSVKVSCKASGSPAEPYAIQWVRQAPGQGLEWMGYIIPSLGGYDYAQKFQGRVTITADESTSTAYMELSSLRSEDTAVYYCARGQTLYESGRQFDIWGQGTLVTVSS
VL: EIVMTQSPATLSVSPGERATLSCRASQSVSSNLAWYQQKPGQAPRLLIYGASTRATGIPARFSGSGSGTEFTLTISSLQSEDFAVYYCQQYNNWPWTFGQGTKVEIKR
notes: also called ISB 880-C8-recC-ES

EC50 (read off the curve) [2]: ~0.3 mg/L
B2: Anti-IL-1RAP-C3-A3 mmIgG2a LALA (antibody, V domains shown)
VH: EVQLLESGGGLVQPGGSLRLSCAASGFIFSHYGMSWVRQAPGKGLEWVSAISYDGEGTLYADSVKGRFTISRDNSKNTLYLQMNSLRAEDTAVYYCARFRYYTAFDYWGQGTLVTVSS
VL: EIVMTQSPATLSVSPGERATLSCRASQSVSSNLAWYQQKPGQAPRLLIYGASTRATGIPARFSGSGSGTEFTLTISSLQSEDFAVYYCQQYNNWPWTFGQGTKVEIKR
notes: also called anti-IL-1RAP-C3-A3 mouse IgG2a LALA
